Laboratory results reported in US5665701.

Key:
[1] = molecular target: FcγRII receptor (CD32) on human platelets (human) (UniProt P12318)
[2] = molecular target: FcγRII receptor (CD32) on human platelets (human) (UniProt P12318); remark: listed apart in the source

CD32 antibody IV.3 (M.Ab.IV.3) was tested. Which inhibition of M.Ab.F11-induced ^14 C-serotonin release [1] did it give?
Its inhibition of M.Ab.F11-induced ^14 C-serotonin release is 1 µg/mL.

What about the concentration that doubled the latency of M.Ab.F11-induced aggregation [2] of the same substance?
Its concentration that doubled the latency of M.Ab.F11-induced aggregation is 150 ng/mL.
